Assay: soluble on expression in E. coli; label from the status in PepcDB or PDB records

Row | Sequence | soluble on expression in E. coli
1 | AAKGNMQCNIFVPAGTSKGKTTQTRLYGANCIEVEGTREDVALAAIESSVTHGSHYVGHNWHPLFIEGVKSIAYEIWEQCGYKAPDNFVVPAGNGSLLAGAYIGFSELLKGGEISKLPRLFGIQSESIQPFVQTFNNKEINITSEDTIAEGIKIKRSSRMNEIVQFVKETNGNFISVNEQQIQSALKEMGAQGYFIEPTSATAFAGIAQLIKTQEIKPDELTVGVVTGNGLKATNSIEHLINDMRG | not soluble
2 | AAQPADIVLTQTPSSLPVSVGEKVTMTCKSSQTLLYSNNQKNYLAWYQQKPGQSPKLLISWAFTRKSGVPDRFTGSGSGTDFTLTIGSVKAEDLAVYYCQQYSNYPWTFGGGTRLEIKRGGGGSGGGGSGGGGSGGGGSEVQLQQSGPEVVKTGASVKISCKASGYSFTGYFINWVKKNSGKSPEWIGHISSSYATSTYNQKFKNKAAFTVDTSSSTAFMQLNSLTSEDSAVYYCVRSGNYEEYAMDYWGQGTSVTVSS | soluble
3 | ACGYSDRVLQLTLGNSTITTQEAANSVVAYGRWPEFIRDDEANPVDQPTEPDVATCRFYTLDTVMWGKESKGWWWKLPDALRDMGLFGQNMYYHYLGRSGYTVHVQCNASKFHQGALGVFAIPEYCLAGDSDKQRYTSYANANPGERGGKFYSQFNKDNAVTSPKREFCPVDYLLGCGVLLGNAFVYPHQIINLRTNNSATIVLPYVNALAIDSMVKHNNWGIAILPLSPLDFAQDSSVEIPITVTIAPMCSEFNGLRNVTAPKFQ | soluble
4 | ACTQPSDWVPPAKNDALVIALKKVIGGRLSDAFHIRDKLQRRDAIAAVKDDVIQQLAGRLEVEGWNLAELLKEFGELEYRTMRDALLDTKVRIDGRSLEAVRP | not soluble
5 | ADMEVIELNKCTSGQSFEVILKPPSFDGVPEFNASLPRRRDPSLEEIQKKLEAAEERRKYQEAELLKHLAEKREHEREVIQKAIEENNNFIKMAKEKLAQKMESNKENREAHLAAMLERLQEKDKHAEEVRKNKELKEEASR | soluble
6 | ADMGEKFDATFKAQVKAAKADMVMLSPKDAYKLLQENPDITLIDVRDPDELKAMGKPDVKNYKHMSRGKLEPLLAKSGLDPEKPVVVFCKTAARAALAGKTLREYGFKTIYNSEGGMDKWLEEGLPSLDRSHHHHHH | soluble
7 | AEIVEGRDYTVLSAPQPTEGDSEHIEVIEFFWYGCPHCSDLHPHLSRWLENKPADVAFRFVPAILRNNWVPGAKTFYAMESLGLTQTLHDKVYHAIHREKTDLSKEATLFDWIGKQGVDRDKFIGAYNSFTVQNQANRSAQMIRQYKLTGVPALVVDGRYLTSGKAGGTPQDTISVLNQLIEK | not soluble
8 | AEKTNYAVTYKSDSVPSISMAVNTEQSSHYISQFIAVQGLEDHSAKSIFIQDMLQRIVSKRLMHYVREELSLDYAPYALMVNADSEFKPHWVMGAQVDPKNAELIESAIDKVIKDLLRGVTENEVNAAAKQLVVDLEPLKNNSTQQAWLLNRYTIHNYGIEALFGISETANSVNAEDINRLIKYSFGKNSHQFKYLSTPI | not soluble
9 | AELPPEFAAQLRKIGDKVYCTWSAPDM | soluble
10 | AEPVKVGSKIDTEGALLGNMIQQVLESHGVKTINKIQLGTTPVVRGAIVAGELDIYPEYTGNGAFFFKDENDPAWKNAQQGYEKVKRLDQEKHQLVWLTPAPANNTWTIAVRQDLAEKNKLTSLADLSRYLKQGGEFKLAASAEFIERPDALPAFEKAYGFNLNQNQLLSLAGGDTAVTIKAAAQQTSGVNAAMAYGTDGPVAALGLQTLSDPQGVQPIYAPTPVVREAVLKAYPQIADWLQPVFASLDEKTLQQLNARIAVEGQDAKRVAADYLQQKGLLK | not soluble
11 | AHHHHHHGSHFIKHFEEELIALSNAPHRGGLTKARGFFFMKVEKNYRGDYKKDCLEFERKNGLRSFVGFMTAVDIEKVMAIKSLGNVEVYLTAGISNPAIAGEEPKPWEPGTINMAIVIDEGLTIGAMANAIMTATEAKTYTLLKLGYNATGTTSDGIGVFARQGNVEWAGTATRLGFEIGKAVREALEESIKKWEKIKSL | soluble
12 | AHHHHHHGSKAIILAAGKGERLRPLTDDRPKVVLKIANKPIISYVLENLDPFVDEFIIVVKYMKEKVIDLLGDEFRGKPITYVEQGEEEGTAAAVYSVKEFIESNEEFFVVNGDLYFEPDAVKGLLHVFKKEKGDAGIVVKEFENLSQYGMVEVENGKVKGIIEKPGNVKGYANLGIYIFKSDVFDYIENTEISERGEYEITDTINLMIKDGKSVVYYNYEGFWSDIGRPWDLLEVNEYILKTKLKHEIRGVVEEGATIIPPVEIGEGTIVRAGSYIIGPVKIGKNCRIGPNCYIRPYTSIGDNCHIGNAVEVKNSIIMDNSNAPHLNYVGDSIIGENTNLGAGTITANLRHDKGTIKVEVKGKLEDSGRRKLGAIIGHNVKVGINVTIYPGRKIGSNSFIGPGVIVDKNIPQNVLVTVKQEKKVIEK | soluble
13 | AHHHHHHGSKIARVNGLWITIPNVRYSFFNTPYIGHRIGTAVDVYFEDRALFPFEEGKLIEVRKIRTPRYIPVDHDYLMVFKLGEFCLKVLHVDPSVKIGEKVFLGDEIGKLRLSGFFSPWSDKHAHFEVRDCNDRYRARGAFPLFPEVKPLVPIVKGNTFEVVERKGHYLWLKPLETKGKGMTPLGNIEGGLPHYRYGAIFSGREGKLFGIDVKAQEILENGVGIFKPNFEVLANGVKVRGIGVYCNEERVKLIGGNFEVGDIIKIEIKARLGT | not soluble
14 | AHHHHHHGSKLEIRDLSVGYDKPVLERITMTIEKGNVVNFHGPNGIGKTTLLKTISTYLKPLKGEIIYNGVPITKVKGKIFFLPEEIIVPRKISVEDYLKAVASLYGVKVNKNEIMDALESVEVLDLKKKLGELSQGTIRRVQLASTLLVNAEIYVLDDPVVAIDEDSKHKVLKSILEILKEKGIVIISSREELSYCDVNENLHKYSTKIDKKD | soluble
15 | AHHHHHHGSKVYAPATIANFGPGFDVFGLAIETPRDTVIAKESDDFRIEVEGYKVPENDENVALVAAKALFKLVGEEGGIYLKLKKGIRPKSGLGSSGASSIAGAVAAARILGVEDDEIIIRAALEGERKASGSPHGDNVVPSYYGNFTIVESLNPLRVHNIEVDFKVVVILPSVEVPTSEARKVLPKKVPLKDAVKNIALASSLVLALKEGNLEEVGRLLEDHLALPYRLSLVPWFPKVKEAAKEAGAYGVMISGSGPAVFALGENLKEIGKAMKEAFESFGIEAEYWVTKVGRGAKWC | not soluble
16 | AHHHHHHGSLIVVRPGRKKNELEAFIIENPPEKLSQRRNLKADRVVRLIMRDNRLFKALEGSQYLNPKEVERALRNSRIVLVNANEWEEYFKKRLMNKRVEKADICRLCLLNGKITVLTEGNRIRYRDEYICESCAEEELKRELRFRFNSIGMLEQAKKLLERFRDLDKVISIFDPSFDPTKHPEITKWDELKAKHIRVEKMHIDELNIPEEFKKVLKAEGINELLPVQVLAIKNGLLEGENLLVVSATASGKTLIGELAGIPKALKGKKMLFLVPLVALANQKYEDFKRRYSKLGLKVAIRVGMSRIKTKEEPIVLDTGTDAHIIVGTYEGIDYLLRAGKKIGNVGTVVIDEIHMLDDEERGARLDGLIARLRKLYSNAQFIGLSATVGNPQELARKLGMKLVLYDERPVDLERHLIIARNESEKWRYIAKLCKAEAMRKSEKGFKGQTIVFTFSRRRCHELASFLTGQGLKAKAYHSGLPYVQRKLTEMEFQAQMIDVVVTTAALGAGVDFPASQVIFESLAMGNKWITVREFHQMLGRAGRPQYHEKGKVYIIVEPGKKYSAQMEGTEDEVALKLLTSPIEPVIVEWSDEFEEDNVLAHACVFNRLKVIEEVQSLCLGANQSAKNVLEKLMEKGLVKIYGDKVEATPYGRAVSMSFLLPREAEFIRDNLESTDPIEIAIKLLPFENVYLPGSLQREIESAVRGKISSNIFSSSFASVLEELDKIIPEISPNAAERLFLIYQDFFNCPEQDCTEFAMERIGRKIIDLRREGYEPSKISEHFRKVYALILYPGDVFTWLDGIVRKLEAIERIARVFNKRRVVEDTIRVRREIEEGKILKGERR | not soluble
17 | AHHHHHHGSLSERELERYDRQIMIFGIEGQEKLKKANVAVVGVGGLGSPVAYYLAAAGVGTILLIDEQTPELSNLNRQILHWEEDIEKNPKPISAKWKLERFNSNIKIETFVGRLSEENIDEVLSGVDVIVDCLDNFETRYLLDDFAHKKGIPLVHGAVEGFYGQVTTIIPGKTKRLREIFPKVKKKGKFPIVGATAGVIGTIQASEVIKLITGYGEPLANKLLIIDLANNTYEIIEI | soluble
18 | AHHHHHHGSRIVAITDIHGRRSMVEKLVDVVRREDVDVILIAGDITHFSGAEEAERVLSPLLTLEIPLLAVMGNCDGRDVLDFLEERGVSVHDKRVEIKGVGVVGFGGSNITPFSTIWEFSDDVIYSSLIRNYRQGDIVLTHAPPYGTKLDKTHSGIHAGSMGLRKFIEEKQPKLCICGHIHEGRGVEKIGNTIVVNPGPLARGYYAVIEGDSVELLNLKG | soluble
19 | AHHHHHHGSRVLKSEGVSMLNTELLTTGVKGLDELLGGGVAKGVILQVYGPFATGKTTFAMQVGLLNEGKVAYVDTEGGFSPERLAQMAESRNLDVEKALEKFVIFEPMDLNEQRQVIARLKNIVNEKFSLVVVDSFTAHYRAEGSREYGELSKQLQVLQWIARRKNVAVIVVNQVYYDSNSGILKPIAEHTLGYKTKDILRFERLRVGVRIAVLERHRFRPEGGMVYFKITDKGLEDVKNED | soluble
20 | AHHHHHHGSSKNYKKHQAYIAGRDKMKVAVITGASRGIGEAIAKALAEDGYSLALGARSVDRLEKIAKELSEKHGVEVFYDYLDVSKPESVEEFARKTLAHFGDVDVVVANAGLGYFGRLEELTEEQFHEMIEVNLLGVWRTIKAFLNSLKRTGGVAIVVTSDVSARLLPYGGGYVATKWAARALVRTFQIENPDVRFFELRPGAVDTYFGGSKAGKPKEQGYLKPEEVAEAVKYLLRLPKDVRVEELMLRSIYQKPEY | soluble
21 | AHHHHHHGSVRVAIIGQGYVASIFAVGLERIKEGELGYYGIPLANELPIKVEDIKIVASYDVDKTKIGLPLSEIVQRYWKGNVPESLQEVFVRKGIHLGSLRNLPIEATGLEDEMTLKEAIERLVEEWKEKKVDVIINVPTTEAFTPFGKLEELEKAIKDNNKERLTATQAYAYAAAQYAKEVGGAAFVNAIPTLIANDPAFVELAKESNLVIFGDDGATGATPLTADILGHLAQRNRHVLDIVQFNIGGNTDFLALTDKERNKSKEYTKSSVVEDILGYDAPHFIKPTGYLEPLGDKKFIAMHIEYISFNGARDELIIAGRINDSPALAGLLVDLARLGKIAVDKKEFGTVYPVNAFYMKNPGPKEAKNIPRIIAYEKLRQWAGLPPRYL | soluble
22 | AHHHHHHGSYRIKDEWGEFLVRLARRAIEEYLRTGREIEPPKDIPPELWEKMGVFVTLNRHNVPPQAALRGCIGFPLPIYPLVKATIKAAIYAAVDDPRFPPVKLEEMNNIVVEVSVLTPPELIEGPPEERPKKIKVGRDGLIVEKGIYTGLLLPQVAVEWGWDEEEFLAETCWKAGLPPDCWLDEDTKVYKFTAEIFEEEYPRGPVKRKPLIPQSQD | soluble
23 | AIAAESNQNTDGAVEEGEDENTGDSNLQMELSAFRAKWMSELQPSSGGQRSFSRNAELRRRQETAKEEKARELFLKAVEEEQNGAVYEAIKYYKSAMQLVPDIEFKINYSRTPDPERGGSYLESSENNREIDDLLTYFQHQLTLGNDAMKLCEHETETSQVHISALPFEVLMYIFRWVVSCDLDLRALEQLSLVCRGFYICARDPEIWRSACLRVWGRSCTKMLPYSSWREMFLERPRVRFDGVYISKTSYIRQGEESLDGFYRAWHQVEYYRYLRFFPDGQVMMLTTPEDPLVTVPRLRSKNSRMDSIMFGHYRLSQDTDNQTKVYVVVSKRKEEKVSEYQRSRFCRRNPVPEAERSFHVGLQLSSGGRQRFNKLVWIHHSCHITYRSTGETVVTAFDVDKMYTPLFFARVKSYTAFSERPL | soluble

From the DeepSol protein solubility set
